Among the data in paper PMC10117100 are normalized luminescence ratio (NLR) values, retold here.

This experiment addresses Gluc1-E2F4 (human), Q16254. The experiment can be described thus: split reporter (BiFC, NanoBiT); Gaussia princeps protein complementation assay (GPCA): Gluc1 and Gluc2 N-terminal fusions co-transfected in HEK293T, luminescence of lysates after 48 h as normalized luminescence ratio (NLR); pairs count as interacting if NLR is above 5. Conditions: remark: other sources report otherwise.

Gluc1-E2F4 (human), Q16254, sequence (Q16254 whole entry, the tested form may be a part): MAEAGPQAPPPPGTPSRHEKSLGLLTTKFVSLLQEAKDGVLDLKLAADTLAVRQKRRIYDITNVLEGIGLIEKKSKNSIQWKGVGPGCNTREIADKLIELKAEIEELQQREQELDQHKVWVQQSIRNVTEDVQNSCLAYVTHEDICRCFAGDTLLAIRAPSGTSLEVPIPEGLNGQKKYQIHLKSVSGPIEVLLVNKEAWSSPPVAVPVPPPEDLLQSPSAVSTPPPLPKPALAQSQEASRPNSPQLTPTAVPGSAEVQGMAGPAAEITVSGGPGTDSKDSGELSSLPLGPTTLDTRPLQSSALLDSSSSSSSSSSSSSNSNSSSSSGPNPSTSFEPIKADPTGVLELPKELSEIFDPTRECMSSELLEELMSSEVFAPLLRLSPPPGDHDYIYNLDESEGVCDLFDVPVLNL

B1: Gluc2-p130, Q08999 1-1139 (natural protein)
chain: MPSGGDQSPPPPPPPPAAAASDEEEEDDGEAEDAAPPAESPTPQIQQRFDELCSRLNMDEAARAEAWDSYRSMSESYTLEGNDLHWLACALYVACRKSVPTVSKGTVEGNYVSLTRILKCSEQSLIEFFNKMKKWEDMANLPPHFRERTERLERNFTVSAVIFKKYEPIFQDIFKYPQEEQPRQQRGRKQRRQPCTVSEIFHFCWVLFIYAKGNFPMISDDLVNSYHLLLCALDLVYGNALQCSNRKELVNPNFKGLSEDFHAKDSKPSSDPPCIIEKLCSLHDGLVLEAKGIKEHFWKPYIRKLYEKKLLKGKEENLTGFLEPGNFGESFKAINKAYEEYVLSVGNLDERIFLGEDAEEEIGTLSRCLNAGSGTETAERVQMKNILQQHFDKSKALRISTPLTGVRYIKENSPCVTPVSTATHSLSRLHTMLTGLRNAPSEKLEQILRTCSRDPTQAIANRLKEMFEIYSQHFQPDEDFSNCAKEIASKHFRFAEMLYYKVLESVIEQEQKRLGDMDLSGILEQDAFHRSLLACCLEVVTFSYKPPGNFPFITEIFDVPLYHFYKVIEVFIRAEDGLCREVVKHLNQIEEQILDHLAWKPESPLWEKIRDNENRVPTCEEVMPPQNLERADEICIAGSPLTPRRVTEVRADTGGLGRSITSPTTLYDRYSSPPASTTRRRLFVENDSPSDGGTPGRMPPQPLVNAVPVQNVSGETVSVTPVPGQTLVTMATATVTANNGQTVTIPVQGIANENGGITFFPVQVNVGGQAQAVTGSIQPLSAQALAGSLSSQQVTGTTLQVPGQVAIQQISPGGQQQKQGQSVTSSSNRPRKTSSLSLFFRKVYHLAAVRLRDLCAKLDISDELRKKIWTCFEFSIIQCPELMMDRHLDQLLMCAIYVMAKVTKEDKSFQNIMRCYRTQPQARSQVYRSVLIKGKRKRRNSGSSDSRSHQNSPTELNKDRTSRDSSPVMRSSSTLPVPQPSSAPPTPTRLTGANSDMEEEERGDLIQFYNNIYIKQIKTFAMKYSQANMDAPPLSPYPFVRTGSPRRIQLSQNHPVYISPHKNETMLSPREKIFYYFSNSPSKRLREINSMIRTGETPTKKRGILLEDGSESPAKRICPENHSALLRRLQDVANDRGSH
Consider B1, for which the normalized luminescence ratio (NLR) is above 40.
